The record followed here is article PMC4828686.

Values joined by “and” are separate entries in the source; they are usually repeats but may differ in a detail not shown here. Equal entries are not always repeated.

Assay [1] addresses Actin, purified (rabbit skeletal muscle; Cytoskeleton, Inc.) (rabbit) (UniProt P68135). The experiment in a line: SPR. For orientation: In SPR one partner is held on a chip, and binding of the other changes the refractive index at the surface.
The target in assay [2] is Actin mutant that cannot polymerize (G-actin mimetic; Joel et al., 2004). The experiment in a line: SPR.
For assay [3], the target named is Actin, purified (rabbit skeletal muscle; Cytoskeleton, Inc.) (rabbit) (UniProt P68135). Briefly: co-sedimentation.
Assay [4] deals with GST-fused full-length kindlin-2 LK47/AA mutant (GST-K2LK47/AA) (human) (UniProt Q96AC1). Briefly: pull-down.
In assay [5] the target is Actin, purified (rabbit skeletal muscle; Cytoskeleton, Inc.) (rabbit) (UniProt P68135). The experiment in a line: ELISA. A general note: An ELISA detects its analyte on a solid surface through an enzyme-linked reagent.

On to “GST-fused full-length kindlin-2 (GST-K2) (from UniProt Q96AC1 1-680) (natural protein)”, for which the Kd was 0.136 µM and 0.19 µM in assay [1]; 0.124 µM in assay [2].
For “Full-length kindlin-2 (K2), GST tag removed by Factor Xa (from UniProt Q96AC1 1-680) (natural protein)”, the percent of the added protein in the actin pellet in assay [3] is 36% and 30% to 54% (2×).
Consider α-actinin (natural protein), for which the percent of the added protein in the actin pellet in assay [3] was found to be 52%.
In turn, “Actin, purified (rabbit skeletal muscle; Cytoskeleton, Inc.) (from UniProt P68135 1-377) (natural protein)” came in with a mean percent less actin pulled down than by WT K2 in assay [4] of 75%.
In the case of “GST-fused full-length kindlin-2 LK47/AA mutant (GST-K2LK47/AA) (from UniProt Q96AC1 1-680) (natural protein)”, in assay [5], the fold difference of the relative Kd against WT K2 is 3 fold and 5 fold. Further, in assay [1], the Kd is 0.982 µM and 1.58 µM.

As usually defined, the Kd is the free concentration of one partner at which half of the binding sites on the other are occupied at equilibrium, for simple one-to-one binding. A high value points to lower affinity.
